T1: PUF4 RNA-binding domain (Saccharomyces cerevisiae, UniProt P25339 537-888)
T1 sequence: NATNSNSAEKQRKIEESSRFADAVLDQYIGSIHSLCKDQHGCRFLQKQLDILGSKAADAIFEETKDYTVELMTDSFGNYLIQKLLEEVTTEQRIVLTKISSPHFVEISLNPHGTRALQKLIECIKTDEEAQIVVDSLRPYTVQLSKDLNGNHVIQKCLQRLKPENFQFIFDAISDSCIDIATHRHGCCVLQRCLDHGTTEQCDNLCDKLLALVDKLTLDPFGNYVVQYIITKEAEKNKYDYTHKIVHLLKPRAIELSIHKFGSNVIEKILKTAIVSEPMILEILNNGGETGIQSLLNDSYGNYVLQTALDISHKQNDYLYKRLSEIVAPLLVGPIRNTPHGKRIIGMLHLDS


The binders below were run against T1, PUF4 RNA-binding domain (assay: Mg; RNA-MaP; 20 mM Na-HEPES pH 7.4, 30 mM KOAc, 0.75 mM MgCl2, 0.1% Tween-20, 5% glycerol, 0.1 mg/mL BSA, 2 mM DTT; 25 C; 0.0125-409.6 nM protein). Details: tags: N-His6-TEV cleaved; C-SNAP kept, Cy3B-labelled; label: tethered on chip by stalled RNA polymerase.

Binder	Kd [nM]
UCUCUUUGUAUAUACUCUCUU (ssRNA) [Ib_S1_P4E.1_K4.1_C4.1_H4.1_A4.1_F4.1_[T8A]_[A9C]_T4.1]	8.2
UCUCUUUCUAUAUUAUCUCUU (ssRNA) [Ia_S1_P4E.1_K4.1_C4.1_H4.1_[G2C]_A4.1_F4.1_T4.1]	1380
UCUCUUUAUAUAUGAUCUCUU (ssRNA) [Ib_S1_P4E.1_K4.1_C4.1_H4.1_[G2A]_A4.1_F4.1_[T8G]_T4.1]	> 2300
Ic_S2_P5E.1_K5.1_C5.1_H5.1_A5.1_[T6C]_[A7C]_F5.1_[T8G]_[T9C]_[A10T]_T5.1 (ssRNA) RNA: UUUGAUUAAUAUGAUAUCGUUCUUUCUUGUAUCCGCUUUCUUUCUCGAUAUCAUAUUAAUCUUU	596
Ic_S2_P5E.1_K5.1_C5.1_H5.1_A5.1_[T5A]_[A7C]_F5.1_[T8A]_[T9C]_[A10C]_T5.1 (ssRNA) RNA: UUUGAUUAAUAUGAUAUCGUUCUUUCUUGUAAUCACCUUCUUUCUCGAUAUCAUAUUAAUCUUU	545
Ic_S2_P5E.1_K5.1_C5.1_H5.1_A5.1_[T5C]_[A7C]_F5.1_[T9C]_[A10G]_T5.1 (ssRNA) RNA: UUUGAUUAAUAUGAUAUCGUUCUUUCUUGUACUCUCGUUCUUUCUCGAUAUCAUAUUAAUCUUU	152
Ic_S2_P5E.1_K5.1_C5.1_H5.1_A5.1_[T5C]_[T6A]_[A7T]_F5.1_[T8G]_[T9G]_[A10T]_T5.1 (ssRNA) RNA: UUUGAUUAAUAUGAUAUCGUUCUUUCUUGUACAUGGUUUCUUUCUCGAUAUCAUAUUAAUCUUU	45.8
Ic_S2_P5E.1_K5.1_C5.1_H5.1_A5.1_[T5C]_[T6A]_[A7G]_F5.1_[T8C]_[T9C]_T5.1 (ssRNA) RNA: UUUGAUUAAUAUGAUAUCGUUCUUUCUUGUACAGCCAUUCUUUCUCGAUAUCAUAUUAAUCUUU	119
Ic_S2_P5E.1_K5.1_C5.1_H5.1_A5.1_[T5A]_[A7C]_F5.1_[T8C]_[T9C]_T5.1 (ssRNA) RNA: UUUGAUUAAUAUGAUAUCGUUCUUUCUUGUAAUCCCAUUCUUUCUCGAUAUCAUAUUAAUCUUU	669
Ic_S2_P5E.1_K5.1_C5.1_H5.1_A5.1_[T5C]_[A7C]_F5.1_[T8A]_[T9G]_[A10C]_T5.1 (ssRNA) RNA: UUUGAUUAAUAUGAUAUCGUUCUUUCUUGUACUCAGCUUCUUUCUCGAUAUCAUAUUAAUCUUU	818
Ic_S2_P5E.1_K5.1_C5.1_H5.1_A5.1_[T5C]_F5.1_[T8A]_[T9A]_T5.1 (ssRNA) RNA: UUUGAUUAAUAUGAUAUCGUUCUUUCUUGUACUAAAAUUCUUUCUCGAUAUCAUAUUAAUCUUU	55.1
Ic_S2_P5E.1_K5.1_C5.1_H5.1_A5.1_[T6A]_[A7T]_F5.1_[T8C]_[T9G]_[A10C]_T5.1 (ssRNA) RNA: UUUGAUUAAUAUGAUAUCGUUCUUUCUUGUAUAUCGCUUCUUUCUCGAUAUCAUAUUAAUCUUU	21.9
Ic_S2_P5E.1_K5.1_C5.1_H5.1_A5.1_[T6A]_[A7G]_F5.1_[T9A]_[A10C]_T5.1 (ssRNA) RNA: UUUGAUUAAUAUGAUAUCGUUCUUUCUUGUAUAGUACUUCUUUCUCGAUAUCAUAUUAAUCUUU	2.48
Ic_S2_P5E.1_K5.1_C5.1_H5.1_A5.1_[T5G]_F5.1_[T8A]_[T9C]_[A10C]_T5.1 (ssRNA) RNA: UUUGAUUAAUAUGAUAUCGUUCUUUCUUGUAGUAACCUUCUUUCUCGAUAUCAUAUUAAUCUUU	832
Ic_S2_P5E.1_K5.1_C5.1_H5.1_A5.1_[T5C]_[T6A]_[A7T]_F5.1_[T9A]_T5.1 (ssRNA) RNA: UUUGAUUAAUAUGAUAUCGUUCUUUCUUGUACAUUAAUUCUUUCUCGAUAUCAUAUUAAUCUUU	0.373
Ic_S2_P5E.1_K5.1_C5.1_H5.1_A5.1_[T5G]_F5.1_[T8A]_[T9A]_T5.1 (ssRNA) RNA: UUUGAUUAAUAUGAUAUCGUUCUUUCUUGUAGUAAAAUUCUUUCUCGAUAUCAUAUUAAUCUUU	656
Ic_S2_P5E.1_K5.1_C5.1_H5.1_A5.1_[T6C]_[A7G]_F5.1_[T8G]_T5.1 (ssRNA) RNA: UUUGAUUAAUAUGAUAUCGUUCUUUCUUGUAUCGGUAUUCUUUCUCGAUAUCAUAUUAAUCUUU	37.7
Ic_S2_P5E.1_K5.1_C5.1_H5.1_A5.1_[T5A]_[T6C]_[A7T]_F5.1_[T8C]_[T9A]_T5.1 (ssRNA) RNA: UUUGAUUAAUAUGAUAUCGUUCUUUCUUGUAACUCAAUUCUUUCUCGAUAUCAUAUUAAUCUUU	1040
Ic_S2_P5E.1_K5.1_C5.1_H5.1_A5.1_[A7C]_F5.1_[T8C]_[T9C]_[A10T]_T5.1 (ssRNA) RNA: UUUGAUUAAUAUGAUAUCGUUCUUUCUUGUAUUCCCUUUCUUUCUCGAUAUCAUAUUAAUCUUU	142
Ic_S2_P5E.1_K5.1_C5.1_H5.1_A5.1_[T6G]_[A7T]_F5.1_[T8C]_[T9A]_[A10C]_T5.1 (ssRNA) RNA: UUUGAUUAAUAUGAUAUCGUUCUUUCUUGUAUGUCACUUCUUUCUCGAUAUCAUAUUAAUCUUU	293
Ic_S2_P5E.1_K5.1_C5.1_H5.1_A5.1_[T6C]_F5.1_[T8A]_[T9A]_[A10C]_T5.1 (ssRNA) RNA: UUUGAUUAAUAUGAUAUCGUUCUUUCUUGUAUCAAACUUCUUUCUCGAUAUCAUAUUAAUCUUU	170
Ic_S2_P5E.1_K5.1_C5.1_H5.1_A5.1_[T5C]_[T6G]_[A7C]_F5.1_[T8G]_[T9C]_[A10C]_T5.1 (ssRNA) RNA: UUUGAUUAAUAUGAUAUCGUUCUUUCUUGUACGCGCCUUCUUUCUCGAUAUCAUAUUAAUCUUU	548
Ic_S2_P5E.1_K5.1_C5.1_H5.1_A5.1_[T5C]_[T6G]_[A7T]_F5.1_[T8C]_[T9C]_[A10C]_T5.1 (ssRNA) RNA: UUUGAUUAAUAUGAUAUCGUUCUUUCUUGUACGUCCCUUCUUUCUCGAUAUCAUAUUAAUCUUU	167

From article PMC9352680, “A comprehensive thermodynamic model for RNA binding by the Saccharomyces cerevisiae Pumilio protein PUF4”
